{
  "source": "patent US20180196057A1",
  "about": "(VENTANA MEDICAL SYSTEMS, published 2018)",
  "key": {"[1]": {"target": "T1, human pro-epiregulin (human, UniProt O14944 30-169)", "T1 construct": "Endogenous protein in FFPE tissue sections, xenografts and cell lysates (IHC, Western blot); also called EREG; pro-EREG", "T1 sequence": "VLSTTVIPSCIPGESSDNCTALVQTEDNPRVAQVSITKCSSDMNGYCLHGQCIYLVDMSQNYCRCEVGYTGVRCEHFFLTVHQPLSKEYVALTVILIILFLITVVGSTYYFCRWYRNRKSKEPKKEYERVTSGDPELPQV", "test": "IHC on FFPE carcinoma cell lines and colorectal cancer cases (OptiView DAB)", "description": "(§1) All assay optimization were performed on human non-small cell lung carcinoma (NSCLC) (NCI-H1975; NCI-H1650; H460; NCI-HCC827; H2228; Calu-3; H820), breast (MCF7; A431) carcinoma cell lines and colorectal cancer tissues. Stained slides for the tested conditions were evaluated by a trained pathologist and the optimal staining conditions were determined based on the staining intensity, percentage of positive cells and the level of non-specific (background) staining.\n(§2) The assay performance of EREG/AREG IHC assays were evaluated on 8 colorectal cancer cases kindly provided by Dr. Paul Waring. Specimens were immunohistochemically stained for EREG expression with clone J5H1L1 and for AREG expression with J111H1L10 on a VENTANA BenchMark XT IHC/ISH instrument."}, "[2]": {"target": "T2, human amphiregulin (human, UniProt P15514 20-252)", "T2 construct": "Endogenous protein in FFPE tissue sections and cell lysates (IHC, Western blot); also called AREG; pro-AREG", "T2 sequence": "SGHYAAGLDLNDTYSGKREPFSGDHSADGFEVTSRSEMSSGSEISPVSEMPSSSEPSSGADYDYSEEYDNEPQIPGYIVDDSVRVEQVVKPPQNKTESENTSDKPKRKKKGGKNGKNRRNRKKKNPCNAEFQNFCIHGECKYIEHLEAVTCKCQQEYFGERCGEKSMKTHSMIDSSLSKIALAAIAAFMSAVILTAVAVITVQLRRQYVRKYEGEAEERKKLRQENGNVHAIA", "test": "IHC on FFPE carcinoma cell lines and colorectal cancer cases (OptiView DAB)", "description": "as §1, §2"}, "[3]": {"target": "T1, human pro-epiregulin", "test": "recombinant antibodies screened for binding to human pro-epiregulin by IHC"}},
  "data": [
    {"binder": "anti-human pro-epiregulin monoclonal antibody J5H1L1 (antibody, V domains shown, also called clone J5H1L1; EREG J5H1L1) VH: QSVEESGGRLVTPGTPLTLTCTVSGFSLSRYGMSWVRQAPGKGLEYIGSINRTAYTYYATWAKGRFTISRTSTTVDLRMTSLTTEDTATYFCARGLTYGGSDYDYDDALWGPGTLVTVSS VL: QVLTQTPSSVSAAVGGTVTINCQASQSVYKNKNLAWYQQKPGQPPKLLIYRASTLASGVSSRFKGSGSGTQFTLTISGVQCADAATYYCQGEFSCSTFDCILFGGGTEMVVK", "values": [
      {"measurement": "binding result", "setting": "[1]", "result": "binds"}
    ]},
    {"binder": "anti-human amphiregulin monoclonal antibody J111H1L10 (antibody, V domains shown, also called clone J111H1L10; AREG J111H1L10) VH: QSLEESRGGLIKPGGTLTLTCTVSGFSLSSYAISWVRQAPGNGLEWIGFIVGSSGSAYYASWAKSRSTITRDTNLNTVTLKMTSLTAADTATYFCAKGLYSGGNYWGPGTLVTVSS VL: AVLTQTPSPVSAAVGGTVSISCQSSQSVDENNYLSWFQQKPGQPPKLLIYRASTLESGVPSRFSGSGSGTQFTLTVSGVQCDDAATYYCLGGYSGYSDDGFGGGTEVVVK", "values": [
      {"measurement": "binding result", "setting": "[2]", "result": "binds"}
    ]},
    {"binder": "anti-human pro-epiregulin monoclonal antibody J89H12L3 (antibody, V domains shown, also called clone J89H12L3) VH: KSVEESGGRLVTPGTPLTLTCTVSGIDLSTFAMAWVRQAPGKGLEYIGFISLSDATYYATWAKGRFTISKSSSTTVDLKIITPTAEDTATYFCARVVGDSSGYPNTFHPWGPGTLVTVSS VL: QVLTQTPSPVSAAVGGTVTINCQASQSIHNSDFLAWYQQKPGQPPKLLIYRASKLPSGVPSRFKGSGSGTQFTLTISDLECDDAATYYCQGTYYSGGWYFTFGGGTEVVVK", "values": [
      {"measurement": "binding result", "setting": "[3]", "result": "binds"}
    ]},
    {"binder": "anti-human pro-epiregulin monoclonal antibody J89H12L8 (antibody, V domains shown, also called clone J89H12L8) VH: KSVEESGGRLVTPGTPLTLTCTVSGIDLSTFAMAWVRQAPGKGLEYIGFISLSDATYYATWAKGRFTISKSSSTTVDLKIITPTAEDTATYFCARVVGDSSGYPNTFHPWGPGTLVTVSS VL: QVLTQTPSPVSAAVGGTVTINCQASQNIHNSDFLAWYQQKPGQPPKLLIYRASKLPSGVPSRFKGSGSGTQFTLTISDLECDDAATYYCQGTYYSGGWYFTFGGGTEVVVK", "values": [
      {"measurement": "binding result", "setting": "[3]", "result": "binds"}
    ]}
  ]
}
